Reference: paper PMC12876850 (Cell Death & Disease, 2026)

Molecular target: T1, FLAG-tagged GSK3β (UniProt P49841 1-420)
T1 construct: glycogen synthase kinase-3β, expressed from a plasmid; also called FLAG-GSK3β; source: HEK-293, co-transfected, in lysate
Test: co-IP; HEK-293 co-transfected with HA-TGase 2 and FLAG-GSK3β at increasing TGase 2:GSK3β plasmid ratios; TGase 2-GSK3β and GSK3β-β-catenin association followed
Conditions: partners not purified

T1 sequence (P49841 whole entry): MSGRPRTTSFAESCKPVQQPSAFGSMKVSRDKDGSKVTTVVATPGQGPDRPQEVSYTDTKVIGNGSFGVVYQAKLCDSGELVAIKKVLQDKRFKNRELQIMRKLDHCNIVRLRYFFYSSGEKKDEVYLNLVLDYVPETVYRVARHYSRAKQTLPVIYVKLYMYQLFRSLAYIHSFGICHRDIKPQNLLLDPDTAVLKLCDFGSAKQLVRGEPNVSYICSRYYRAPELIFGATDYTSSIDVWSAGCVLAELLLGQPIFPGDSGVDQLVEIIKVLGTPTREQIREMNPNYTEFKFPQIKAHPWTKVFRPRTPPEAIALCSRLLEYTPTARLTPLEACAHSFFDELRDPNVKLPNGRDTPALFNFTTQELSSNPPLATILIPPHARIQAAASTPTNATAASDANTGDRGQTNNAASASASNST

percent decrease of the interaction with GSK3β (of β-catenin, by the legend) at TGase 2:GSK3β plasmid ratio 1:1: 52% | percent decrease of the interaction with GSK3β (of β-catenin, by the legend) at TGase 2:GSK3β plasmid ratio 1:2: 45%
B1: HA-tagged wild-type TGase 2 (enzyme, UniProt P21980 1-687, looked up)
chain: MAEELVLERCDLELETNGRDHHTADLCREKLVVRRGQPFWLTLHFEGRNYEASVDSLTFSVVTGPAPSQEAGTKARFPLRDAVEEGDWTATVVDQQDCTLSLQLTTPANAPIGLYRLSLEASTGYQGSSFVLGHFILLFNAWCPADAVYLDSEEERQEYVLTQQGFIYQGSAKFIKNIPWNFGQFEDGILDICLILLDVNPKFLKNAGRDCSRRSSPVYVGRVVSGMVNCNDDQGVLLGRWDNNYGDGVSPMSWIGSVDILRRWKNHGCQRVKYGQCWVFAAVACTVLRCLGIPTRVVTNYNSAHDQNSNLLIEYFRNEFGEIQGDKSEMIWNFHCWVESWMTRPDLQPGYEGWQALDPTPQEKSEGTYCCGPVPVRAIKEGDLSTKYDAPFVFAEVNADVVDWIQQDDGSVHKSINRSLIVGLKISTKSVGRDEREDITHTYKYPEGSSEEREAFTRANHLNKLAEKEETGMAMRIRVGQSMNMGSDFDVFAHITNNTAEEYVCRLLLCARTVSYNGILGPECGTKYLLNLNLEPFSEKSVPLCILYEKYRDCLTESNLIKVRALLVEPVINSYLLAERDLYLENPEIKIRILGEPKQKRKLVAEVSLQNPLPVALEGCTFTVEGAGLTEEQKTVEIPDPVEAGEEVKVRMDLLPLHMGLHKLVVNFESDKLKAVKGFRNVIIGPA
notes: transglutaminase 2, wild type, expressed from a TGM2 plasmid; also called HA-tagged wild-type TGM2; HA-tagged TGase 2; source: HEK-293, co-transfected, in lysate
